Assay results: the Human Domainome abundance scans (Beltran et al. 2025)

B1: Histone H1t, residues 44 to 112; numbered along this chain, P22492 (parent)
chain: VSKLITEALSVSQERVGMSLVALKKALAAAGYDVEKNNSRIKLSLKSLVNKGILVQTRGTGASGSFKLS

Variants of: B1
Assay: abundance fitness (aPCA) (normalised: wild type 0, dead -1); higher = more abundant; growth selection in yeast, the domain comes from the species named
Details: Homo sapiens

Abundance fitness of substitutions, site by site:
N37: M -0.45 | V -0.161 | T -0.522 | A 0.244 | Y -0.289 | L -0.061 | D -0.397
L43: R 0.049 | S 0.034 | A 0.18 | V -0.617 | E 0.229 | N 0.266 | Q 0.172 | G -0.061 | K 0.181 | P -0.483 | H 0.015 | D 0.036
S39: A -0.005 | H -0.089 | C -0.675 | P -0.445 | D -0.013 | V -0.539 | G -0.087 | W -0.472 | R -0.327 | Q 0.075 | Y -0.557 | M -0.228 | F -0.594 | N 0.075 | K -0.001 | L -0.317 | E 0.148
K42: V -0.024 | T -0.045 | Y -0.138 | P -0.682 | I 0.094 | N -0.379 | G -0.188 | R -0.125 | L 0.048 | H -0.158 | F -0.413 | M 0.14 | E 0.182 | D -0.096 | S -0.108 | A -0.098
D33: I -0.121 | L -0.034 | T -0.025 | F 0.243 | W 0.259 | K -0.119 | Q 0.042 | A 0.063 | N -0.254 | M 0.115 | V 0.029 | H 0.143 | R 0.036 | Y 0.144 | S -0.021 | P -0.214 | E 0.2
E35: P -0.31 | S -0.134 | F -0.307 | T -0.061 | K 0.05 | I -0.123 | H -0.137 | Q -0.084 | M -0.157 | Y -0.036 | N -0.064
K46: G -0.875 | M -0.23 | W -0.418 | L -0.178 | T -0.209 | P -0.841 | I -0.129 | N -0.489 | D -0.329 | V -0.197 | S -0.332 | Q -0.226 | C -0.628 | R -0.053 | Y -0.895 | H -0.35 | A -0.01 | E -0.053
G52: C -0.01
I41: G -0.405 | E -0.813 | L -0.124 | H -0.444 | P -0.394 | W -0.113 | Q -0.556 | T -0.56 | Y -0.43 | D -0.742 | C -0.439 | V -0.308 | F -0.055 | R -0.514 | M -0.191 | N -0.542
S44: Q -0.072 | F -0.298 | H -0.126 | L -0.108 | M -0.047 | I -0.239 | N -0.148 | C 0.217 | V 0.16 | T 0.081 | E 0.175 | A 0.324 | Y -0.279 | R -0.173 | W -0.426 | P -0.636
K36: A -0.106 | T -0.323 | M -0.285 | E -0.428 | S -0.25 | W -0.626 | R -0.106 | H -0.432 | N -0.019 | G -0.251 | D -0.387 | Y -0.362 | L -0.358 | V -0.46 | Q -0.152 | C -0.556 | P -0.62 | I -0.628
L48: N -0.775 | K -0.939 | S -0.801 | R -0.864 | Y -0.624 | G -0.894 | A -0.755 | P -0.873 | E -0.784 | C -0.589 | V -0.536 | I -0.564 | Q -0.643 | F -0.404 | W -0.402 | D -0.405 | T -0.592 | H -0.979
